Consider three molecules from article PMC13598245 (2026).

What all share (assay): FP
Test [1] deals with T1, 14-3-3θ (purified, recombinant) (UniProt P27348 1-245).
T1 chain: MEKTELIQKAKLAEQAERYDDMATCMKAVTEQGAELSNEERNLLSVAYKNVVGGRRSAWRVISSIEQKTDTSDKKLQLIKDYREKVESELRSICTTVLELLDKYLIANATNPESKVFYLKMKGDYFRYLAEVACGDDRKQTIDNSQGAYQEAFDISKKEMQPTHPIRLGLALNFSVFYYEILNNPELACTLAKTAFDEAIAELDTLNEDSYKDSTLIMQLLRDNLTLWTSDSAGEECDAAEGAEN

In test [2] the target is T2, 14-3-3η (purified, recombinant) (UniProt Q04917 1-246).
T2 chain: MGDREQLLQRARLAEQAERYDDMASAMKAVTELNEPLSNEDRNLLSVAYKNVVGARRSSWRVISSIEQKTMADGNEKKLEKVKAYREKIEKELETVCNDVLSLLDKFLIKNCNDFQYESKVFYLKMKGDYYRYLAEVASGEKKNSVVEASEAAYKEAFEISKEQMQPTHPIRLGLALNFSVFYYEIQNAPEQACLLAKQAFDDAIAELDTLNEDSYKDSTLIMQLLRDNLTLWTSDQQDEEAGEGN

Test [3] addresses T1, 14-3-3θ (purified, recombinant).
Test [4] addresses T2, 14-3-3η (purified, recombinant).

Where two headings read alike, the source gives them in different places. Square brackets hold non-standard residues; d marks the D form. Ends that are not written are not given here. * marks the point of attachment. FITC = O=C1OC2(c3ccc(O)cc3Oc3cc(O)ccc32)c2ccc(NC(=S)*)cc21; pS = N[C@@H](COP(=O)(O)O)C(=O)O

By Kd is commonly meant the concentration at which binding is half-saturated.

As for {FITC}-RPRSR[pS]LSPGRSP [MAST1^156-168 p-S161], the Kd in test [1] came to 10.7 µM; in test [2], 3.6 µM.

In the case of {FITC}-RSRTP[pS]LPTPPTR [Tau^209-221 p-S214], the Kd turned out to be 90.9 µM in test [3] and 21 µM in test [4].

With {FITC}-DGRRW[pS]LASLPSS [MAST1^85-97 p-S90], the Kd in test [1] was determined as 23.7 µM; in test [2], 12.3 µM.
